The series is described as follows: soluble fraction after stress (log2 fold change); higher = more stays soluble; pooled small domains, quantitative proteomics. To be noted: stress: 50 degC. The gist of the method: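 After stress at 50°C, the amount of each protein still soluble was measured. This was done on pooled custom libraries of small protein domains, using high-throughput quantitative proteomics. The figure given is a base-two log fold change and stands for aggregation propensity, with higher values meaning more protein stays in solution.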
Take “HMSVSVNAPMPGNILDVRAKTGESIQKGQVIVILEAMKMENEIMAPQDGKISSINTSKGSTVNSGDLLFTM”: the “soluble fraction (log2)” value was -0.155.
Under “HMSVTMPNLVGLDEQTAVTRINSSNLSYGSTNYVHSDHEAGVVFKQSTPAYTEVDEHTKIYIWVSLGPEE” stands -0.0912; under “HMSVTPLLDATEKDKTKYRDLWLVAVVKNGVNYARKYKFGYVYAWLYRHDRDWLLQVNNQHKIPNIT”, 0.127; under “HMSVTVMVLRAAGDIQAGTEITDKHLATVEVGEYGLPEGIINDKDSILGKIALTDIAKGDYFFSQKLG”, -0.134.
In the case of “HMSVVKPIYIGMMTSEVEAIMGKPFEVITNNNSKNNQLWIYKYQDKRSVMLTFTNYKLIKIE” it was -0.819; in that of “HMSWDNELLERAHKIIELYPQKRSALGPLLYLAQEKDGFISDDSIVEISNLVDITEVQVKSVSSFYSMY”, -0.268; in that of “HMSWGDVKLTMWGAEEDQTMLREMADAFIEQNADKGNVTIEIGVQSESSAKDTVLADPESAADVFA”, 0.00693.
Regarding “HMSWRWVPVSGAYTTSALEAAGLTRAFDDQAAAEEWLGLFFDDLLREGVGEVSLYEEDRLVYGPMSL”, the “soluble fraction (log2)” value was -3.1.
Turning to “HMSYANVEWRDFLNSLDEKYRIVVILYYVQGFKTREIAEILQINQSTVRGRLAKAREKLEQQYN”, the “soluble fraction (log2)” value was -1.46.
Regarding “HMSYFIFDGVLNLGKQYELKGEESSHITKSRRLRPGDSFLIQDQEGQRFEAILKSFDRNSLIFTPHKPTA”, the “soluble fraction (log2)” value was -0.0922.
“HMSYFNEYEVGDTIRVVNGPLADQISTITAIDKEKGLVNISTVFFGRENNVQVSINDIEKYN”: the “soluble fraction (log2)” value was 0.0466.
In the case of “HMSYGDLTGRTVVITGASKGIGARASRVLAQAGASVVGLARSVDELTALKYDLENDGLSFDFG” it was no less than 0.62; in that of “HMSYKYYSTERPLMPGSFPKPQGNTVLNIENFNDRSYVGKIGREAWGFIEYEKPISPVLLDDYELVAA”, 0.0613.
Under “HMSYLELENLAEDIKATYDNLSTDLREVFRLSDIEGLSYEEISNKMNIPIGTVRSRLHRARETLLRIFNN” stands -0.933; under “HMSYPTAVTQTTLNVRTGPGTQYERLGAFVENTEVIVLTRQPEWIQVRGMSGDKAIIGWVSARYLQMNP”, -0.457.
On to “HMSYQNKLNYLINAFGGADNFQKLLGVGPSAISNYKSRKHLPLNQAKRLSKIAPQFGFSLDPHSLQIST”, for which the “soluble fraction (log2)” value is -0.377.
Under “HMSYQSYDKVVGDTFFEANLKAESKFGKGNFEIISTRRVKHPIYLGFGHKELVELTIGIHDP” stands -0.308; under “HMSYTAYLSQELGDMSREIQSELLKKGYNGSSSFTIVRTYMGSSVKFSVYNANNGELITSKTINM”, -1.93.
Under “HMSYTDIILKMSNVNFLTKVNFTNSEKNKNIKNGNFLIKKGKNRITAAFDYKDNELVISKSNLRNTFL” stands -0.381; under “HMTAEVIYVDVGGEVNQPSVVELTDGSRVTDAIAAAGGLTEKADLTDINRAAFVSDGEKIFIPSQEE”, -0.0513; under “HMTAFAGLTPRERDLLELIAQGRDNAQIAATLGVSDKTVRNHITHIFAKLEVETRAQAIVLARNAGFGRA”, -0.356.
In the case of “HMTAGYFTRGSHQDEVLRIQGTPSGVNKYSDHEVWNYGLSSVDISLRDRRVTEWNNISGNLKV” it was -0.152; in that of “HMTAKRELILRVFMDSNGKLLSIDDVFMEMRKKRSHRTSKMTVKRAIDLLVDLGLLKEVLFDDDNIKYEYV”, -0.0948; in that of “HMTALISGNKAMQMLELSRHSFEKIVKDGLLSIVHEGDKKYYEIGEVEAFMGSDTYKELVNGV”, -0.345.
With “HMTALSIGTVVRFTGDRHYISSTGDTGYPASPGLAKITSINPGSKHPYHLIHIDNTSNVYGWVNKQDIIT”, the “soluble fraction (log2)” value worked out at 0.16.
Under “HMTAQLSITLNGETRRAAAGSIADLVRSLELDPAKVAVERNGLIVPRSTLAEVALGDGDVLEIVHFV” stands -0.186.
Take “HMTASTLSYSKFNEQVVQNQVRKVTFQGEQVKGELISGQTFTTTVPANDTTLWPMLKAHNVDTAVTAA”: the “soluble fraction (log2)” value was 0.229.
Under “HMTASVTDAMFELIDELPKLGKTSFRQLTADLVDRLQVVVTFLAVLELYKQGHVELDQSERFGDITVVWTG” stands -0.0255.
For the sequence “HMTATIEEVNELTQSARVNINVPYAAKDEAKAYGAKWDDVERTWYTTGENYAQNKDFFDGFNPTAS”, the “soluble fraction (log2)” value was determined as 0.156.
In the case of “HMTATWLTYYRIKAGLTQKRLAELAGLNIRQVQKIENGETLAGNTTAKNLLALADALGIDPHKL” it was -2.05; in that of “HMTAYENSIPLNWVIQKGDAKGLPLSANTARLLIDIVGIDLMDLDHELEKISLYLSGESITEEMIKEHIRG”, -0.668.
On to “HMTDAELDLLTPREQEVLQLIARGYLYKEIARRLGISVKTVEAHASSVLRKLQLSTRHELSHWAAQRH”, for which the “soluble fraction (log2)” value was -0.258.
For the sequence “HMTDAYEVLDLNREASDEEIKKRYRELIREHHPDTLIAKGVPQEFVDLANDKMAAINAAYDRIEKDRGL”, the “soluble fraction (log2)” value came to 0.279.
In the case of “HMTDEEKENLREKMLEAGFPLLKQYGMTHTSVAKITQAAGIAVGTFYSFWKNKEAYMADLIGYHRR” it was -0.818; in that of “HMTDITSAITRLNKYNKSGTPLTIDSVTPEALQTLQAKVSSAFEIGAVNQQTYDDVTKDIATLQQYLSSA”, 0.15; in that of “HMTDIVPNLIGKSLKDAIQSVEKSNLKAIFDGHGIVVSQQPRPGSPIPARKIMKVTLSPDYR”, 0.011.
As for “HMTDKLEEEAKKKAMEDALADEMNISKTIVHDGIRELARIGFLDVISRKGIYVADYTFTGNLETLLAVIRY”, the “soluble fraction (log2)” value was -0.926.
Take “HMTDLDDFAARLKTLTDGRASTPRLRDGVMMLSLDVGGLGPDQRDGLIAAIREGGLTVPGVSDVRIVMT”: the “soluble fraction (log2)” value is 0.0757.
For the sequence “HMTDLEDDEKKVYRLIVESGEGIDFDTLSERSGFSATELPSILLFLMMKEMIDELPGKIYRYSE”, the “soluble fraction (log2)” value is 0.0814.
Under “HMTDMYLTYQELRHLGVSQNLISMWKSRKSIDFHMLGGTLYVRYMSIPEQTRSKLALQNVERVYNSRE” stands -2.55.
Under “HMTDRINIGDVVTIISKDREDSQIVYMRYHKGKLSILGELILNKTKNDTVDFKGRTYDIATIEKS” stands -1.83; under “HMTDVHFIDVPVSEGHPWIGLTVKDLNLPPGTLLVFLNHPGEKSTVPNGDTVLREGDVLVLGATAYAG”, -0.0795; under “HMTDYKTNLQEFLQQDGEVEIEYKLLAEVGPSHARQFEVDVMMGDRVLGSGVGRNKKAAEQAAAKVALSKL”, -0.124.
For the sequence “HMTDYVPTIGTKISKDFGSKGYFEGEVVSGPHNVTVEGDNMVVWKVQYEDGDREEMTASEIAHWKA”, the “soluble fraction (log2)” value was -0.105.
Under “HMTEAIDVPNLVGQNYSDVKSNSSYKFNWDIINVYDSGKPEGEIIKQEPEAGSKKVKENAVITLTVN” stands 0.278.
“HMTEDNDLETIAYDILKERNLNNININVKNGVLNIYGKTETLKEKREIEKILSSLNVSKINNLIKI”: the “soluble fraction (log2)” value was 0.315.
For the sequence “HMTEDQDWAIFKQKLKAQTEIDLDLYKEPQMKHRIKNLIQNAGFDSYVQYFDYVYLNQDRLAAFLENLTV”, the “soluble fraction (log2)” value was determined as 0.0704.
Under “HMTEEELLERLDAVITEYKGKPGALIPVLQLAQGIFGYLPEVALKHIARQLDKPYSEVAGVVSFYSFFTT” stands 0.0488.
“HMTEFDVIMKSFGSEKIKVIKEVRAITGLGLAEAKALVEGVPAKIKEQVSKDDAEALKKQLEAVGAEVEL”: the “soluble fraction (log2)” value was determined as 0.0379.
In the case of “HMTEFWTGPITTVTKANFADWTLDTNQDRITANVWLTRADSKGLFNITPGKETAFDIVDYLSPLDTEWA” it was -0.188; in that of “HMTEGDRLARRILRLVRNKPNGYPEVELMKATVLDWNHFQRSISSLEMAGILERRDPGDGTPPVWVEKR”, -0.688; in that of “HMTEKIEWYKEVLDLEPNSKIFFPLAKMLEKEGELEEARRVLAEGVSRHEEFLEARLFYISVLSRL”, -0.169.
With “HMTENLELLATGSLWTEPDGSGKIISYLIPGLRVKKLETNGIFYKIQLQNGLIGWADQSLFTIAEPK”, the “soluble fraction (log2)” value is -0.0642.
In the case of “HMTENQKNIDLIKIVSLLVHAAKIDENYTNKEKELIINFINNFSKENKQNIKSSEILEEAEKYEK” it was 0.0572.
Take “HMTEPKRIVDHWQPSDDVYDILRMSHIDLDFARSLLPEFIVYWKDSSQTHTSWNSKFLQHAKYHWAKRHQL”: the “soluble fraction (log2)” value was -2.08.
With “HMTEPLTKREKEVLLLLPRGLTAKAMASELFLTEATIKSHLAAIFRKFKVVNRTQAIAIAVESKILT”, the “soluble fraction (log2)” value is -2.33.
Under “HMTESLVITVDPALHGLRLDRGLADALPDRSRSEVQRWIKEGRVQLHGAPAKPSLKLAAGDIVTIALPEE” stands 0.393; under “HMTESSTYFEKIGTEISQFKSIPKNIDVIIIEKLIYSGIIKKVDNEENSRVYYILTRKGRYFWKRYVLS”, 0.0633; under “HMTETFVLNLRQPIAAAPVLPGYRVARTDEQTLEVEVSKDQNLNEIFTALSALGVEVLSMRNK”, -0.12.
Consider “HMTFAEADAQYEVIKQQYLAGALDEEQFDEQLHRLMVLDDGGLWWAKSRENGSWHYYDPDREDWIAATP”, for which the “soluble fraction (log2)” value was -0.355.
In the case of “HMTFEAKKGYINADMSVNVRETASTSATVIITLNPNTEVKVVGEENDFYKIEYKEYKGYVAKRLISDSQVQ” it was -0.166.
Under “HMTFPTEAKLTGDKVFVRSGPSTQSQRLTNLAINSVVTVLAREMGDMQYPWYKVRYSDGEGWVYGQYVEAI” stands -0.0237; under “HMTFTQFAESHGVIIKSLKASDKIQRGPTVAHPKSDNGAWLWDGNRGGVMAWDGDGQWYWFK”, -1.95; under “HMTGEERRMNTADLYRRRGMELFKRKIYVDAIDSLKVSLEYEDNATTRYYLDLATKRYQDLKIS”, -1.12.
For “HMTGETWAERSRALAAAGLIVMGQEAKNKIEDLPSLSPLIEAAAASETRLLTGQIIDELLAFV”, the “soluble fraction (log2)” value is -0.288.
“HMTGIELLSHREHQVYDLLTQGRTVTEIGAQLNLAPNTVSTYRARILEKTGTKNDVELALYAQRH”: the “soluble fraction (log2)” value was -0.209.
Under “HMTGKASEIAALLEQRIAAGDYPAGSKLPSERELAASFHVSRNTIRDAIALLAARKIVSTKWGAGTVVLG” stands -0.139.
For “HMTGLRETIPAALDGERLDRVVALLGDVSRSRASAALEAERVTLDGEVVTLRSHRVREGEELTVAGFE”, the “soluble fraction (log2)” value amounted to 0.405.
Regarding “HMTGLSAQILAKLRDNHGVLPVSDKSDPAVISNLFGVSKGNFKKAIGGLYKEGQIVIHADRIEL”, the “soluble fraction (log2)” value is -0.0576.

For the origin of these results see the domain aggregation screens of Martell et al. (2025).
